Assays:
[1] = target: NstA(C8Y)-GFP (C. crescentus); experiment: non-reducing SDS-PAGE with immunoblot; GFP fusions expressed from the xylX locus in C. crescentus; reducing against non-reducing SDS-PAGE; disulfide-linked dimer; also synchronized cells at 0 and 60 min
[2] = target: NstA-seGFP (C. crescentus); experiment: not stated; cells overproducing NstA-seGFP, with or without 7.5 uM NEM (Supplemental Fig. S11B)
[3] = target: the molecule itself; experiment: non-reducing SDS-PAGE with immunoblot; GFP fusions expressed from the xylX locus in C. crescentus; reducing against non-reducing SDS-PAGE; disulfide-linked dimer; also synchronized cells at 0 and 60 min

**Q.** NstA(C8Y)-GFP (natural protein) was tested. Which stoichiometry N [1] did it give?
**A.** The stoichiometry N was 2.

**Q.** How did the stoichiometry N [2] turn out when NstA-seGFP (natural protein) was run?
**A.** The stoichiometry N was 2.

B1: NstA-GFP (natural protein, C. crescentus, UniProt A0A0H3CC90 1-66, looked up)
chain: MQVFTFFCVESDGSVPRFDVTPCADDAAARVRAFELLDMHHRCDFVEVWRGAQRVFDVFAQQVAAA
notes: NstA (CCNA_03091), C. crescentus, predicted protein of 66 residues; also called functional C-terminal GFP version of wild-type NstA; xylX::Pxyl-nstA-gfp; source: wild-type C. crescentus, expressed from the xylX locus on the chromosome, in lysate; not shown: GFP, C-terminal, kept
**Q.** Which “stoichiometry N” value [3] does the source give for B1 here?
**A.** The value was 2.
